Data published in patent US20220040297A1 (Chugai, published 2022).

Molecular target: CD3ε homodimer protein (human, UniProt P07766 23-126, limits assumed)
Experiment: SPR, immobilized CD3ε homodimer;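 also: biacore T200 surface plasmon resonance at 25 °C, antibody variants flowed as analytes over amine-coupled CD3ε homodimer on a CM4 chip, variant binding amount divided by that of GLS3000 antibody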

CD3ε homodimer protein, sequence (P07766 23-126 limits assumed): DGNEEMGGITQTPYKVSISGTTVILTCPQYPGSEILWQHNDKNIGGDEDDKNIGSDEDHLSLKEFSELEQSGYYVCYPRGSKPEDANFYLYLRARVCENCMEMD

| ratio of amounts bound (vs GLS3000) | Binder |
| --- | --- |
| 1.03 | GLS3000 S27eA (antibody, name in Kabat numbering, V domains shown, one-arm format as m2) VH: QVQLVESGGGVVQPGRSLRLSCAASGFTFSNAWMHWVRQAPGKGLEWVAQIKAKSNNYATYYAESVKGRFTISRDDSKNSLYLQMNSLKTEDTAVYYCRYVHYGAYYGVDAWGQGTTVTVSS VL: DIVMTQSPLSLPVTPGEPASISCRSSQSLVHANRNTYLHWYQQKPGQAPRLLIYKVSNRFSGVPDRFSGSGSGTDFTLKISRVEAEDVGVYYCGQGTQVPYTFGQGTKLEIK |
| 0.71 | GLS3000 F55V (antibody, name in Kabat numbering, V domains shown, one-arm format as m2) VH: QVQLVESGGGVVQPGRSLRLSCAASGFTFSNAWMHWVRQAPGKGLEWVAQIKAKSNNYATYYAESVKGRFTISRDDSKNSLYLQMNSLKTEDTAVYYCRYVHYGAYYGVDAWGQGTTVTVSS VL: DIVMTQSPLSLPVTPGEPASISCRSSQSLVHSNRNTYLHWYQQKPGQAPRLLIYKVSNRVSGVPDRFSGSGSGTDFTLKISRVEAEDVGVYYCGQGTQVPYTFGQGTKLEIK |
| 1.13 | GLS3000 F55A (antibody, name in Kabat numbering, V domains shown, one-arm format as m2) VH: QVQLVESGGGVVQPGRSLRLSCAASGFTFSNAWMHWVRQAPGKGLEWVAQIKAKSNNYATYYAESVKGRFTISRDDSKNSLYLQMNSLKTEDTAVYYCRYVHYGAYYGVDAWGQGTTVTVSS VL: DIVMTQSPLSLPVTPGEPASISCRSSQSLVHSNRNTYLHWYQQKPGQAPRLLIYKVSNRASGVPDRFSGSGSGTDFTLKISRVEAEDVGVYYCGQGTQVPYTFGQGTKLEIK |
| 1.16 | GLS3000 F55P (antibody, name in Kabat numbering, V domains shown, one-arm format as m2) VH: QVQLVESGGGVVQPGRSLRLSCAASGFTFSNAWMHWVRQAPGKGLEWVAQIKAKSNNYATYYAESVKGRFTISRDDSKNSLYLQMNSLKTEDTAVYYCRYVHYGAYYGVDAWGQGTTVTVSS VL: DIVMTQSPLSLPVTPGEPASISCRSSQSLVHSNRNTYLHWYQQKPGQAPRLLIYKVSNRPSGVPDRFSGSGSGTDFTLKISRVEAEDVGVYYCGQGTQVPYTFGQGTKLEIK |
| 0.8 | GLS3000 F55M (antibody, name in Kabat numbering, V domains shown, one-arm format as m2) VH: QVQLVESGGGVVQPGRSLRLSCAASGFTFSNAWMHWVRQAPGKGLEWVAQIKAKSNNYATYYAESVKGRFTISRDDSKNSLYLQMNSLKTEDTAVYYCRYVHYGAYYGVDAWGQGTTVTVSS VL: DIVMTQSPLSLPVTPGEPASISCRSSQSLVHSNRNTYLHWYQQKPGQAPRLLIYKVSNRMSGVPDRFSGSGSGTDFTLKISRVEAEDVGVYYCGQGTQVPYTFGQGTKLEIK |
| 0.72 | GLS3000 F55E (antibody, name in Kabat numbering, V domains shown, one-arm format as m2) VH: QVQLVESGGGVVQPGRSLRLSCAASGFTFSNAWMHWVRQAPGKGLEWVAQIKAKSNNYATYYAESVKGRFTISRDDSKNSLYLQMNSLKTEDTAVYYCRYVHYGAYYGVDAWGQGTTVTVSS VL: DIVMTQSPLSLPVTPGEPASISCRSSQSLVHSNRNTYLHWYQQKPGQAPRLLIYKVSNRESGVPDRFSGSGSGTDFTLKISRVEAEDVGVYYCGQGTQVPYTFGQGTKLEIK |
| 0.69 | GLS3000 F55W (antibody, name in Kabat numbering, V domains shown, one-arm format as m2) VH: QVQLVESGGGVVQPGRSLRLSCAASGFTFSNAWMHWVRQAPGKGLEWVAQIKAKSNNYATYYAESVKGRFTISRDDSKNSLYLQMNSLKTEDTAVYYCRYVHYGAYYGVDAWGQGTTVTVSS VL: DIVMTQSPLSLPVTPGEPASISCRSSQSLVHSNRNTYLHWYQQKPGQAPRLLIYKVSNRWSGVPDRFSGSGSGTDFTLKISRVEAEDVGVYYCGQGTQVPYTFGQGTKLEIK |
| 0.92 | GLS3000 F55Y (antibody, name in Kabat numbering, V domains shown, one-arm format as m2) VH: QVQLVESGGGVVQPGRSLRLSCAASGFTFSNAWMHWVRQAPGKGLEWVAQIKAKSNNYATYYAESVKGRFTISRDDSKNSLYLQMNSLKTEDTAVYYCRYVHYGAYYGVDAWGQGTTVTVSS VL: DIVMTQSPLSLPVTPGEPASISCRSSQSLVHSNRNTYLHWYQQKPGQAPRLLIYKVSNRYSGVPDRFSGSGSGTDFTLKISRVEAEDVGVYYCGQGTQVPYTFGQGTKLEIK |
| 0.69 | GLS3000 F55S (antibody, name in Kabat numbering, V domains shown, one-arm format as m2) VH: QVQLVESGGGVVQPGRSLRLSCAASGFTFSNAWMHWVRQAPGKGLEWVAQIKAKSNNYATYYAESVKGRFTISRDDSKNSLYLQMNSLKTEDTAVYYCRYVHYGAYYGVDAWGQGTTVTVSS VL: DIVMTQSPLSLPVTPGEPASISCRSSQSLVHSNRNTYLHWYQQKPGQAPRLLIYKVSNRSSGVPDRFSGSGSGTDFTLKISRVEAEDVGVYYCGQGTQVPYTFGQGTKLEIK |
| 0.91 | GLS3000 F55Q (antibody, name in Kabat numbering, V domains shown, one-arm format as m2) VH: QVQLVESGGGVVQPGRSLRLSCAASGFTFSNAWMHWVRQAPGKGLEWVAQIKAKSNNYATYYAESVKGRFTISRDDSKNSLYLQMNSLKTEDTAVYYCRYVHYGAYYGVDAWGQGTTVTVSS VL: DIVMTQSPLSLPVTPGEPASISCRSSQSLVHSNRNTYLHWYQQKPGQAPRLLIYKVSNRQSGVPDRFSGSGSGTDFTLKISRVEAEDVGVYYCGQGTQVPYTFGQGTKLEIK |
| 0.94 | GLS3000 F55H (antibody, name in Kabat numbering, V domains shown, one-arm format as m2) VH: QVQLVESGGGVVQPGRSLRLSCAASGFTFSNAWMHWVRQAPGKGLEWVAQIKAKSNNYATYYAESVKGRFTISRDDSKNSLYLQMNSLKTEDTAVYYCRYVHYGAYYGVDAWGQGTTVTVSS VL: DIVMTQSPLSLPVTPGEPASISCRSSQSLVHSNRNTYLHWYQQKPGQAPRLLIYKVSNRHSGVPDRFSGSGSGTDFTLKISRVEAEDVGVYYCGQGTQVPYTFGQGTKLEIK |
| 1.31 | GLS3000 F55R (antibody, name in Kabat numbering, V domains shown, one-arm format as m2) VH: QVQLVESGGGVVQPGRSLRLSCAASGFTFSNAWMHWVRQAPGKGLEWVAQIKAKSNNYATYYAESVKGRFTISRDDSKNSLYLQMNSLKTEDTAVYYCRYVHYGAYYGVDAWGQGTTVTVSS VL: DIVMTQSPLSLPVTPGEPASISCRSSQSLVHSNRNTYLHWYQQKPGQAPRLLIYKVSNRRSGVPDRFSGSGSGTDFTLKISRVEAEDVGVYYCGQGTQVPYTFGQGTKLEIK |
| 1.31 | GLS3000 F55G (antibody, name in Kabat numbering, V domains shown, one-arm format as m2) VH: QVQLVESGGGVVQPGRSLRLSCAASGFTFSNAWMHWVRQAPGKGLEWVAQIKAKSNNYATYYAESVKGRFTISRDDSKNSLYLQMNSLKTEDTAVYYCRYVHYGAYYGVDAWGQGTTVTVSS VL: DIVMTQSPLSLPVTPGEPASISCRSSQSLVHSNRNTYLHWYQQKPGQAPRLLIYKVSNRGSGVPDRFSGSGSGTDFTLKISRVEAEDVGVYYCGQGTQVPYTFGQGTKLEIK |
| 0.65 | GLS3000 F55D (antibody, name in Kabat numbering, V domains shown, one-arm format as m2) VH: QVQLVESGGGVVQPGRSLRLSCAASGFTFSNAWMHWVRQAPGKGLEWVAQIKAKSNNYATYYAESVKGRFTISRDDSKNSLYLQMNSLKTEDTAVYYCRYVHYGAYYGVDAWGQGTTVTVSS VL: DIVMTQSPLSLPVTPGEPASISCRSSQSLVHSNRNTYLHWYQQKPGQAPRLLIYKVSNRDSGVPDRFSGSGSGTDFTLKISRVEAEDVGVYYCGQGTQVPYTFGQGTKLEIK |
| 0.33 | GLS3000 G89D (antibody, name in Kabat numbering, V domains shown, one-arm format as m2) VH: QVQLVESGGGVVQPGRSLRLSCAASGFTFSNAWMHWVRQAPGKGLEWVAQIKAKSNNYATYYAESVKGRFTISRDDSKNSLYLQMNSLKTEDTAVYYCRYVHYGAYYGVDAWGQGTTVTVSS VL: DIVMTQSPLSLPVTPGEPASISCRSSQSLVHSNRNTYLHWYQQKPGQAPRLLIYKVSNRFSGVPDRFSGSGSGTDFTLKISRVEAEDVGVYYCDQGTQVPYTFGQGTKLEIK |
| 0.76 | GLS3000 F55L (antibody, name in Kabat numbering, V domains shown, one-arm format as m2) VH: QVQLVESGGGVVQPGRSLRLSCAASGFTFSNAWMHWVRQAPGKGLEWVAQIKAKSNNYATYYAESVKGRFTISRDDSKNSLYLQMNSLKTEDTAVYYCRYVHYGAYYGVDAWGQGTTVTVSS VL: DIVMTQSPLSLPVTPGEPASISCRSSQSLVHSNRNTYLHWYQQKPGQAPRLLIYKVSNRLSGVPDRFSGSGSGTDFTLKISRVEAEDVGVYYCGQGTQVPYTFGQGTKLEIK |
| 1.13 | GLS3000 G89A (antibody, name in Kabat numbering, V domains shown, one-arm format as m2) VH: QVQLVESGGGVVQPGRSLRLSCAASGFTFSNAWMHWVRQAPGKGLEWVAQIKAKSNNYATYYAESVKGRFTISRDDSKNSLYLQMNSLKTEDTAVYYCRYVHYGAYYGVDAWGQGTTVTVSS VL: DIVMTQSPLSLPVTPGEPASISCRSSQSLVHSNRNTYLHWYQQKPGQAPRLLIYKVSNRFSGVPDRFSGSGSGTDFTLKISRVEAEDVGVYYCAQGTQVPYTFGQGTKLEIK |
| 0.82 | GLS3000 F55I (antibody, name in Kabat numbering, V domains shown, one-arm format as m2) VH: QVQLVESGGGVVQPGRSLRLSCAASGFTFSNAWMHWVRQAPGKGLEWVAQIKAKSNNYATYYAESVKGRFTISRDDSKNSLYLQMNSLKTEDTAVYYCRYVHYGAYYGVDAWGQGTTVTVSS VL: DIVMTQSPLSLPVTPGEPASISCRSSQSLVHSNRNTYLHWYQQKPGQAPRLLIYKVSNRISGVPDRFSGSGSGTDFTLKISRVEAEDVGVYYCGQGTQVPYTFGQGTKLEIK |
| 0.98 | GLS3000 F55N (antibody, name in Kabat numbering, V domains shown, one-arm format as m2) VH: QVQLVESGGGVVQPGRSLRLSCAASGFTFSNAWMHWVRQAPGKGLEWVAQIKAKSNNYATYYAESVKGRFTISRDDSKNSLYLQMNSLKTEDTAVYYCRYVHYGAYYGVDAWGQGTTVTVSS VL: DIVMTQSPLSLPVTPGEPASISCRSSQSLVHSNRNTYLHWYQQKPGQAPRLLIYKVSNRNSGVPDRFSGSGSGTDFTLKISRVEAEDVGVYYCGQGTQVPYTFGQGTKLEIK |
| 1.33 | GLS3000 F55K (antibody, name in Kabat numbering, V domains shown, one-arm format as m2) VH: QVQLVESGGGVVQPGRSLRLSCAASGFTFSNAWMHWVRQAPGKGLEWVAQIKAKSNNYATYYAESVKGRFTISRDDSKNSLYLQMNSLKTEDTAVYYCRYVHYGAYYGVDAWGQGTTVTVSS VL: DIVMTQSPLSLPVTPGEPASISCRSSQSLVHSNRNTYLHWYQQKPGQAPRLLIYKVSNRKSGVPDRFSGSGSGTDFTLKISRVEAEDVGVYYCGQGTQVPYTFGQGTKLEIK |
| 0.41 | GLS3000 F55T (antibody, name in Kabat numbering, V domains shown, one-arm format as m2) VH: QVQLVESGGGVVQPGRSLRLSCAASGFTFSNAWMHWVRQAPGKGLEWVAQIKAKSNNYATYYAESVKGRFTISRDDSKNSLYLQMNSLKTEDTAVYYCRYVHYGAYYGVDAWGQGTTVTVSS VL: DIVMTQSPLSLPVTPGEPASISCRSSQSLVHSNRNTYLHWYQQKPGQAPRLLIYKVSNRTSGVPDRFSGSGSGTDFTLKISRVEAEDVGVYYCGQGTQVPYTFGQGTKLEIK |
